Data as given in patent US20160304615A1.

What was measured:
[1] = target: EGFRvIII-mmh (human) (UniProt P00533); experiment: SPR coinjection; competitor (first antibody): H1H1863N2(Fuc-)
[2] = target: EGFRvIII-mFc (human); experiment: SPR 37C, receptor-capture
[3] = target: full-length hEGFRvIII on cells (human) (UniProt P00533); experiment: cell-based or functional assay
[4] = target: EGFRvIII-mFc (human); experiment: SPR 37C, mAb-capture
[5] = target: EGFRvIII-mmh (human) (UniProt P00533); experiment: SPR 37C, mAb-capture
[6] = target: full-length hEGFRvIII on cells (human) (UniProt P00533); experiment: FACS, HEK293/EGFRvIII cells, PE secondary antibody
[7] = target: EGFRvIII-mmh (human) (UniProt P00533); experiment: SPR coinjection; competitor (first antibody): Control II
[8] = target: EGFRvIII-mmh (human) (UniProt P00533); experiment: SPR coinjection; competitor (first antibody): Control I
[9] = target: full-length hEGFRvIII on cells (human) (UniProt P00533); experiment: FACS, HEK293/EGFRvIII cells, directly labeled antibody
[10] = target: EGFRvIII-mmh (human) (UniProt P00533); experiment: SPR coinjection; competitor (first antibody): Control III
[11] = target: EGFRvIII-mmh (human) (UniProt P00533); experiment: SPR, captured hEGFRvIII-mmh; no first antibody
[12] = target: EGFRvIII junctional peptide (human); experiment: ELISA
[13] = target: N-terminal biotin-labeled EGFRvIII junctional peptide (human); experiment: ELISA
[14] = target: C-terminal biotin-labeled EGFRvIII junctional peptide (human); experiment: ELISA
[15] = target: EGFRvIII-mmh (human) (UniProt P00533); experiment: ELISA
[16] = target: wild-type human EGFR on cells (human) (UniProt P00533); experiment: FACS, A431 cells, directly labeled antibody
[17] = target: wild-type human EGFR on cells (human) (UniProt P00533); experiment: FACS, A431 cells, PE secondary antibody
[18] = target: EGFR-mFc (human); experiment: SPR 37C, receptor-capture
[19] = target: EGFR-mmh (human) (UniProt P00533); experiment: ELISA

Control III: Humanized anti-EGFRvIII antibody (hIgG1) with the variable domains of the "hu806" antibody of US 2010/0056762, sequence (VH): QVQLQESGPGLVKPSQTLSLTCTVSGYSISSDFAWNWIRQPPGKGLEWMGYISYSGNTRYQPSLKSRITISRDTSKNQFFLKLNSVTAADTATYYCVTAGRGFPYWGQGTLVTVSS
Control III: Humanized anti-EGFRvIII antibody (hIgG1) with the variable domains of the "hu806" antibody of US 2010/0056762, sequence (VL): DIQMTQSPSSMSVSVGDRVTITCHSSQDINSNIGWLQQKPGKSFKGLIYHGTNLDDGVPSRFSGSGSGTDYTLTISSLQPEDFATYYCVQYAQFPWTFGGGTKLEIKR

Row | Substance | Second Antibody Binding Response (RU) [1] [RU] | Kd [2] [nM] | T½ [2] [h] | Fluorescent Intensity of vesicles 4° C., Mean [3] | Fluorescent Intensity of vesicles 37° C., Mean [3] | Kd [4] [nM] | T½ [4] [min] | Kd [5] [nM] | T½ [5] [min] | HEK293/EGFRvIII MFI [6] [MFI] | Second Antibody Binding Response (RU) [7] [RU] | Second Antibody Binding Response (RU) [8] [RU] | HEK293/EGFRvIII MFI [9] [MFI] | Second Antibody Binding Response (RU) [10] [RU] | Second Antibody Binding Response (RU) [11] [RU] | EC50 [15] [nM] | A431 MFI [16] [MFI] | A431 MFI [17] [MFI] | Kd [18] [nM] | T½ [18] [min] | other results
1 | Control I: Human anti-EGFRvIII antibody (IgG1) with the variable domains of the "13.1.2" antibody of U.S. Pat. No. 7,736,644 | 253 | 9.06 | 0.0483 | 22000 | 264000 | 103 | 1.6 | 1190 | 0.1 | 272000 | 252 | 5 | 258000 | 254 | 234 | 0.0094 | 9650 | 1450 | – | – | EC50 [12]: 0.118 nM; EC50 [13]: 0.0106 nM; EC50 [14]: 0.0153 nM
2 | Control II: Chimeric anti-EGFRvIII antibody (hIgG1) with the variable domains of the "ch806" antibody of U.S. Pat. No. 7,589,180 | 191 | 0.059 | 2.63 | 20300 | 615000 | 2.02 | 28 | 150 | 2 | 313000 | 6 | 258 | 313000 | 13 | 247 | 0.0057 | 15700 | 5580 | 0.329 | 79 | koff [18]: 0.000146 s⁻¹; kon [18]: 444000 M⁻¹ s⁻¹; koff [2]: 7.31e-05 s⁻¹; kon [2]: 1.25e+06 M⁻¹ s⁻¹; koff [4]: 0.000408 s⁻¹; kon [4]: 202000 M⁻¹ s⁻¹; koff [5]: 0.00733 s⁻¹; kon [5]: 49000 M⁻¹ s⁻¹; Ratio (EGFRvIII MFI/parental MFI) [6]: 308; Ratio (EGFRvIII MFI/parental MFI) [9]: 87.4; EC50 [19]: 0.0095 nM; Fold Above Background [16]: 2.3 fold; Fold Above Background [17]: 3.9 fold
3 | Control III: Humanized anti-EGFRvIII antibody (hIgG1) with the variable domains of the "hu806" antibody of US 2010/0056762 | – | 0.00067 | 192 | – | – | 1.18 | 39 | – | – | – | – | – | – | – | – | – | – | – | 0.215 | 187 | –
4 | Control V: Human anti-EGFRvIII antibody (IgG1) with the variable domains of the "131" antibody of U.S. Pat. No. 7,736,644 B2 | – | – | – | – | – | 1.95 | 31 | 82 | 1 | 997000 | – | – | – | – | – | – | – | 4240 | – | – | koff [4]: 0.000371 s⁻¹; kon [4]: 191000 M⁻¹ s⁻¹; koff [5]: 0.0159 s⁻¹; kon [5]: 194000 M⁻¹ s⁻¹; Ratio (EGFRvIII MFI/parental MFI) [6]: 85; Fold Above Background [17]: 3 fold
